Data published in US20210061908A1 (IOMX THERAPEUTICS, published 2021).

Experiments:
CL-11 (C) [1] = assay: FACS on CL-11 cells (do not express IGSF11; negative cell line) treated with IGSF11 siRNA (KD)
[2] = target: T1, human IGSF11 (VSIG3) expressed on the surface of cells (human, UniProt Q5DX21 23-431); assay: FACS on M579-A2-luc cells treated with scrambled control siRNA (SC)
T1 construct: one molecule for all cell lines; the cell line is named under assay; also called IGSF11-expressing cells; HEK-OE
T1 sequence: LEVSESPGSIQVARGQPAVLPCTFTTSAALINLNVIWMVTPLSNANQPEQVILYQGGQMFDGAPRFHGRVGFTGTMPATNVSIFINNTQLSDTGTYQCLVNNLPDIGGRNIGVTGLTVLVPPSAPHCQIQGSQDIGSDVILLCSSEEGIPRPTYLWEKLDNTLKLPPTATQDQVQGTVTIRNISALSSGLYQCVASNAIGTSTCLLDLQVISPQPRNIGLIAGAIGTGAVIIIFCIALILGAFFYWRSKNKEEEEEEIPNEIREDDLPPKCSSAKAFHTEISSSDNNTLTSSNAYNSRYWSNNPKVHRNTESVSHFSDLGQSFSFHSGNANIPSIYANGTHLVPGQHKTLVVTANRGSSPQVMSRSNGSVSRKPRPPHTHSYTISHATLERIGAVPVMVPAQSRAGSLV

CL-11 (C) [3] = assay: FACS on CL-11 cells (do not express IGSF11; negative cell line) treated with scrambled control siRNA (SC)
[4] = target: T1, human IGSF11 (VSIG3) expressed on the …; assay: FACS on M579-A2-luc cells treated with IGSF11 siRNA (KD: target knocked down, specificity control)
[5] = target: T2, extracellular domain (ECD) of human IGSF11 (VSIG3), HIS-tagged (human, UniProt Q5DX21 23-241, biotinylated in the ELISA of Example 4 (site not stated)); assay: ELISA, coated IGSF11-HIS, IgG1 format; EC50 grade (* >1 nM, ** 0.05-1 nM, *** 0.02-0.05 nM, **** <0.02 nM)
T2 construct: also called HIS-IGSF11; IGSF11-HIS; not shown: HIS6 tag
T2 sequence: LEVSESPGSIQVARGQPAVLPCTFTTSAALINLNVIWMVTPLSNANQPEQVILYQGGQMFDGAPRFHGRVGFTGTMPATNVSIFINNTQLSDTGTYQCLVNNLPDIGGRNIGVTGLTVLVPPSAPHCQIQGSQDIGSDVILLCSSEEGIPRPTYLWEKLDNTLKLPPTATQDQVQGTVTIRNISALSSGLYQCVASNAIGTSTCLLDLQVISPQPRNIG

[6] = target: T1, human IGSF11 (VSIG3) expressed on the …; assay: FACS, IgG1 format, recombinant HEK cells expressing IGSF11 (HEK-OE)
[7] = target: T1, human IGSF11 (VSIG3) expressed on the …; assay: FACS, IgG1 format, DMS 273 cells
[8] = target: T1, human IGSF11 (VSIG3) expressed on the …; assay: FACS on DMS 273 cells treated with IGSF11 siRNA (KD: target knocked down, specificity control)
[9] = target: T1, human IGSF11 (VSIG3) expressed on the …; assay: FACS on DMS 273 cells treated with scrambled control siRNA (SC)
[10] = target: T3, IGSF11 (VSIG3), construct used in SPR and BLI not stated (UniProt Q5DX21 23-241, limits assumed); assay: SPR (Biacore), IgG1 format; IGSF11 construct not stated
T3 sequence (looked up): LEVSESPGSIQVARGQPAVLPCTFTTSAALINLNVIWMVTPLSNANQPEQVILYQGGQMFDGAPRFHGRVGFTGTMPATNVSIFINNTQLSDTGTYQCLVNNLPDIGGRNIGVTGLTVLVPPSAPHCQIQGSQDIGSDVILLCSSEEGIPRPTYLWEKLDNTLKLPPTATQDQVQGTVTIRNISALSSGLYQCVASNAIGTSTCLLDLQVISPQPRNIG

B1: A-007 (human IgG1 format) (antibody, V domains shown)
VH: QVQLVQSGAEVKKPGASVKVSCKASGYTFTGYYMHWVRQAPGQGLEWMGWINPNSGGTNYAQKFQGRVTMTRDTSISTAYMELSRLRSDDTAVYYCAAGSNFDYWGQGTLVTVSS
VL: QSALTQPASVSGSPGQSITIACTGSSSDIGSFSYVSWYQQRPGKAPTLIIYGVNNRPLGVSRRFSGSKSGNTASLSISGLQAEDEADYYCSSYTRRSTVIFGGGTKLTVL
notes: human IgG1 format
percentage binding (CL-11 (C) [1]): 13.2%
percentage binding [2]: 65.6%
percentage binding (CL-11 (C) [3]): 8.88%
percentage binding [4]: 9.15%
EC50 [5]: < 0.02 nM
EC50 [6]: > 10 nM
EC50 [7]: > 10 nM
percentage binding [8]: 34.2%
percentage binding [9]: 82.3%

B2: A-034 (human IgG1 format) (antibody, V domains shown)
VH: QMQLVQSGGGLVKPGGSLRLSCAASGFTFSSYTMNWVRQAPGKGLEWVSSISSIGTYIYYADSVKGRFTISRDNAKNSLYLQMNSLRAEDTAVYYCARVLLSGSYYGYFDSWGQGTLVTVSS
VL: QSVLTQPPSVSGAPGQRVTISCTGSSSNIGAGYDVHWYQQLPGTAPKLFIYGNSNRPSGVPDRFSGSKSGTSASLAITGLQAEDEADYYCQSYDSSLSGYVFGTGTKVTVL
notes: human IgG1 format
Kd [10]: 250 to 500 nM
EC50 [5]: 0.05 to 1 nM

B3: A-004 (human IgG1 format) (antibody, V domains shown)
VH: EVQLVESGGGLVKPGGSLRLSCAASGFTFSSYSMNWVRQAPGKGLEWVSSISSSSSYIYYADSVKGRFTISRDNAKNSLYLQMNSLRAEDTAVYYCARGQLLWFGESALIDAFDIWGQGTMVTVSS
VL: EIVLTQSPSSLSASVGDRVTITCRASQSISSYLNWYQLKPGKAPKLLIYAASILQSGVPSRFSGSGSGTDFTLTISSLQPEDFAAYYCQQSYSTPRTFGQGTKLEIK
notes: human IgG1 format
Kd [10]: 100 to 250 nM
EC50 [5]: < 0.02 nM

B4: A-015 (human IgG1 format) (antibody, V domains shown)
VH: not shown
VL: QPVLTQSPSASASLGASVKLTCTLSSGHTNYAIAWRQQQPGKAPRYLMLLNSDGSHTRGGGIPDRFSGSSSGAERYLTISSLQSEDEADYYCMIWHNNAWVFGGGTKLAVL
notes: human IgG1 format
percentage binding (CL-11 (C) [1]): 2.91%
percentage binding [2]: 1.17%
percentage binding (CL-11 (C) [3]): 1.95%
percentage binding [4]: 1.3%
percentage binding [8]: 1.6%
percentage binding [9]: 5.97%

B5: A-016 (human IgG1 format) (antibody, V domains shown)
VH: QVQLQESGAEVKKPGASVKVSCKASGYTFTGYYMHWVRQAPGQGLEWMGGIIPIFGTANYAQKFQGRVTITADESTSTAYMELSSLRSEDTAVYYCAGAGMELTRSGAYYYYGMDVWGQGTTVTVSS
VL: QSALTQPASVSGSPGQSITISCTGTSSDIGGYTFVSWYQQHPGKAPKVMIHDVNNRPSGISNRFSGSKSGNTASLTISGLQAEDEADYYCSSVTSTNTYVFGTGTKVTVL
notes: human IgG1 format
EC50 [5]: < 0.02 nM

B6: A-024 (human IgG1 format) (antibody, V domains shown)
VH: QMQLVQSGAEVKKPGSSVKVSCKASGGTFSSYAISWVRQAPGQGLEWMGWISAYNGNTNYAQKLQGRVTMTTDTSTSTAYMELRSLRSDDTAVYYCASLGSYGYTGAFDIWGQGTMATVSS
VL: QSALTQPASVSGSPGQSITISCTGTSSDVGGYNYVSWYQQHPGKAPKLMIYEVSNRPSGVSNRFSGSKSGNTASLTISGLQAEDEADYYCSSYTSSSTLVVFGGGTKLTVL
Kd [10]: > 500 nM
EC50 [5]: 0.02 to 0.05 nM
EC50 [7]: < 10 nM

B7: A-025 (human IgG1 format) (antibody, V domains shown)
VH: QVQLVQSGAEVKKPGSSVKVSCKASGGTFSSYAISWVRQAPGQGLEWMGGIIPIFGTANYAQKFQGRVTITADESTSTAYMELTSLRSEDTAVYYCARGGWLRQNWFDPWGQGTLVTVSS
VL: SSELTQDPAVSVALGQTVRITCQGDSLRSYYASWYQQKPGQAPVLVIYGKNNRPSGIPDRFSGSSSGNTASLTITGAQAEDEADYYCNSRDSSGNHPRVFGGGTKLTVL
notes: human IgG1 format
EC50 [5]: 0.05 to 1 nM

B8: A-009 (human IgG1 format) (antibody, V domains shown)
VH: QVQLVQSGAEVKKPGSSVKVSCKASGGTFSSYAISWVRQAPGQGLEWMGGIIPIFGTANYAQKFQGRVTITADESTSTAYMELSSLRSEDTAVYYCARGRGFGELYFDYWGQGTLVTVSS
VL: ETTLTQSPATLSVSPGERATLSCRASQGVRSNIAWYQQKPGQAPRLLIYDSSTRATGIPARFSGSGSGTEFTLTISSLQSEDFAVYSCQQYKNWPRTFGQGTKVEIK
notes: human IgG1 format
EC50 [5]: 0.05 to 1 nM

B9: A-026 (human IgG1 format) (antibody, V domains shown)
VH: QVQLQESGPGLVKPSQTLSLTCTVSGGSISSGGYYWSWIRQHPGKGLEWIGYIYYSGSTYYNPSLKSRVTISVDTSKNQFSLKLSSVTAADTAVYYCASWSLGTSNHGWFDPWGQGTLVTVSS
VL: QSVLTQPPSASGTPGQRVTISCSGSSSNIGSNTVNWYQQLPGTAPKLLISDNNNRPSGVPDRFSGSKSGTSASLAITGLQAEDEADYYCQSYDSNLSGWVFGGGTKLTVL
notes: human IgG1 format
percentage binding (CL-11 (C) [1]): 3.47%
percentage binding [2]: 11.6%
percentage binding (CL-11 (C) [3]): 3.6%
percentage binding [4]: 2.01%
EC50 [6]: > 50 nM
percentage binding [8]: 3.81%
percentage binding [9]: 64.4%

B10: A-008 (human IgG1 format) (antibody, V domains shown)
VH: QLQLQESGPGLVKPSETLSLTCTVSGGSISSSGYYWGWIRQPPGKGLEWIGSIYYSGSTYYNPSLKSRVTISVDTSKNQFSLKLSSVTAADTAVYYCARHRVRFGEFDAFDIWGQGTMVTVSS
VL: QAVLTQPPSVSGAPGERVTLSCTGTSSNVGADFDVHWYQQFPGTAPRLLIFGSDNRPSGVPDRFSGSKSGTSASLAITGLQVEDEADYYCQAYDVRLSGWVFGGGTKLTVL
notes: human IgG1 format
EC50 [5]: 0.02 to 0.05 nM

B11: A-022 (human IgG1 format) (antibody, V domains shown)
VH: EVQLLESGPGLVKPSQTLSLTCTVSGGSISSGGYYWSWIRQHPGKGLEWIGYIYYSGSTYYNPSLKSRVTISVDTSKNQFSLKLSSVTAADTAVYYCARASRSTDYYFDYWGQGTLVTVSS
VL: QPGLTQPPSMSYGLGQTATLTCTGNRNNIGDQGAAWLQQHQGHPPKLLSYRNNNGPSGISERLSASRSGNTASLTISGLQPEDEADYYCSAWDSSLRAWVFGGGTKLTVL
notes: human IgG1 format
EC50 [5]: < 0.02 nM
EC50 [6]: 10 to 50 nM
EC50 [7]: 10 to 50 nM

B12: A-035 (human IgG1 format) (antibody, V domains shown)
VH: QVQLVQSGAEVKKPGASVKVSCKASGYTFTGYYMHWVRQAPGQGLEWMGWINPNSGNTGYAQKFQGRVTMTRNTSISTAYMELSSLRSEDTAVYYCARGRLERGYWYFDLWGRGTLVTVSS
VL: NFMLTQPHSVSESPGRTVTISCTRSSGSITSNYVQWYQQRPGSAPTILIYEDKERPSEVPDRFSGSIDISSNSASLTISGLKTEDEADYYCQSYGGTSQGVLFGGGTKVTVL
notes: human IgG1 format
EC50 [5]: 0.02 to 0.05 nM
EC50 [6]: > 50 nM

B13: A-033 (human IgG1 format) (antibody, V domains shown)
VH: QVQLVQSGAEVKKPGASVKVSCKASGYTFTSYGISWVRQAPGQGLEWMGWISAYNGNTNYAQKLQGRVTMTTDTSTSTAYMELRSLRSDDTAVYYCARDHSIVGATTFDYWGQGTLVTVSS
VL: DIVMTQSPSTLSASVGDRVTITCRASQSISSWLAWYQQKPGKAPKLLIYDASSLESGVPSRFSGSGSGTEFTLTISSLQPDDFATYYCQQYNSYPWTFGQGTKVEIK
notes: human IgG1 format
EC50 [5]: 0.02 to 0.05 nM

B14: A-003 (human IgG1 format) (antibody, V domains shown)
VH: VQLVQSGAEVKKPGSSVKVSCKASGGTFSSYAISWVRQAPGQGLEWMGGIIPIFGTANYAQKFQGRVTITADESTSTAYMELSSLRSEDTAVYYCASPRIQLWAAGGFDYWGQGTLVTVSS
VL: QSALTQPASVSGSPGQSITISCTGTSSDVGGYNLVSWYQQHPGKAPKLMIYDVSNRPSGVSNRFSGSKSGNTASLTISGLQAEDEADYYCSSFTTSTTLVFGGGTKLTVL
notes: human IgG1 format
EC50 [5]: 0.05 to 1 nM

B15: A-029 (human IgG1 format) (antibody, V domains shown)
VH: QVQLVQSGAEVKKPGSSVKVSCKASGGTFSSYAISWVRQAPGQGLEWMGGIIPIFGTANYAQKFQGRVTITADESTGTAYMELSSLRSEDTAVYYCARSYYYYYGMDVWGQGTTVTVSS
VL: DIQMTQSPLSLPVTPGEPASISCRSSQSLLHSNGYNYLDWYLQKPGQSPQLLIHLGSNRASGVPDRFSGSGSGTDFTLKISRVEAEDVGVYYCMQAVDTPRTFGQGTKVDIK
notes: human IgG1 format
EC50 [5]: 0.05 to 1 nM

B16: A-023 (human IgG1 format) (antibody, V domains shown)
VH: QVQLVQSGAEVKKPGSSVKVSCKASGGTFSSYAISWVRQAPGQGLEWMGGIIPIFGTANYAQKFQGRVTITADESTSTAYMELSSLRSEDTAVYYCARPKYSSGWFYYYGMDVWGQGTTVTVSS
VL: QSVLTQPPSVSAAPGQKVTISCSGSSSNIGNNYVSWYQQLPGTAPKLLIYDNNKRPSGIPDRFSGSKSGTSATLGITGLQTGDEADYYCGTWDSSLSVVFGGGTKLTVL
notes: human IgG1 format
EC50 [5]: 0.05 to 1 nM
